# Measured values: patent publication US20230312723A1, “METHODS AND COMPOSITIONS FOR NON-SMALL CELL LUNG CANCER IMMUNOTHERAPY” (Genentech, Inc., priority 2020, published 2023)
# Marks after values point to notes of the source that are not given here.
# How the values were obtained:
# [1] = tested on: patients with Stage IV NSCLC; assay: Phase III study: safety, adverse events graded according to NCI CTCAE v4.0
# [2] = tested on: patients with Stage IV NSCLC; conditions: in vivo
# [3] = All treated patients, Chemo N = 263, Atezo N = 286
# [4] = All treated patients, Chemo N = 263, Atezo N = 286, listed as atezolizumab
substance,measurement,setting,value
atezolizumab,"AE leading to any treatment withdrawal, % of patients",[1]; [3],(6.3%)
same,"AE leading to any treatment withdrawal, number of patients",[1]; [3],18
same,"All Deaths, % of patients",[1]; [3],43.7%
same,"All Deaths, number of patients",[1]; [3],125
same,"All Grade AE, any cause, % of patients",[1]; [3],(90.2%)
same,"All Grade AE, any cause, number of patients",[1]; [3],258
same,"Cause of death: Adverse Event, % of patients",[1]; [3],3.8%
same,"Cause of death: Adverse Event, number of patients",[1]; [3],11
same,"Cause of death: Other, including deaths collected by public records, % of patients",[1]; [3],3.8%
same,"Cause of death: Other, including deaths collected by public records, number of patients",[1]; [3],11
same,"Cause of death: Progressive disease, % of patients",[1]; [3],36.0%
same,"Cause of death: Progressive disease, number of patients",[1]; [3],103
same,"Grade 3-4 AE, % of patients",[1]; [3],(31.8%)
same,"Grade 3-4 AE, number of patients",[1]; [3],91
same,"Grade 5 AE, % of patients",[1]; [3],(3.8%)
same,"Grade 5 AE, number of patients",[1]; [3],11
same,"Related AE (TRAE), % of patients",[1]; [3],(60.5%)
same,"Related AE, number of patients",[1]; [3],173
same,"Serious Adverse Event, % of patients",[1]; [3],(28.3%)
same,"Serious Adverse Event, number of patients",[1]; [3],81
same,"Treatment-Related SAE, % of patients",[1]; [3],(8.4%)
same,"Treatment-Related SAE, number of patients",[1]; [3],24
same,"Treatment-related Grade 3-4 AE, % of patients",[1]; [3],(12.9%)
same,"Treatment-related Grade 3-4 AE, number of patients",[1]; [3],37
same,"Treatment-related Grade 5 AE, number of patients",[1]; [3],0
same,"Related AE (TRAE), % of patients",[1]; [4],60.5%
same,"Treatment-related Grade 3-4 AE, % of patients",[1]; [4],12.9%
same,"Treatment-related AE Anemia, All Grades, %","[1]; Atezo n = 286, Chemo n = 263",(3.5) %
same,"Treatment-related AE Asthenia, All Grades, %","[1]; Atezo n = 286, Chemo n = 263",(7.3) %
same,"Treatment-related AE Asthenia, Grade 3-4, %","[1]; Atezo n = 286, Chemo n = 263",0.3%
same,"Treatment-related AE Constipation, All Grades, %","[1]; Atezo n = 286, Chemo n = 263",(3.5) %
same,"Treatment-related AE Constipation, Grade 3-4, %","[1]; Atezo n = 286, Chemo n = 263",0.3%
same,"Treatment-related AE Decreased appetite, All Grades, %","[1]; Atezo n = 286, Chemo n = 263",(7.0) %
same,"Treatment-related AE Decreased appetite, Grade 3-4, %","[1]; Atezo n = 286, Chemo n = 263",0.7%
same,"Treatment-related AE Decreased white blood cell count, All Grades, %","[1]; Atezo n = 286, Chemo n = 263",(1.0) %
same,"Treatment-related AE Fatigue, All Grades, %","[1]; Atezo n = 286, Chemo n = 263",(7.7) %
same,"Treatment-related AE Fatigue, Grade 3-4, %","[1]; Atezo n = 286, Chemo n = 263",0.7%
same,"Treatment-related AE Hyperkalemia, All Grades, %","[1]; Atezo n = 286, Chemo n = 263",(2.1) %
same,"Treatment-related AE Hyperkalemia, Grade 3-4, %","[1]; Atezo n = 286, Chemo n = 263",1.0%
same,"Treatment-related AE Hyponatremia, All Grades, %","[1]; Atezo n = 286, Chemo n = 263",(1.7) %
same,"Treatment-related AE Hyponatremia, Grade 3-4, %","[1]; Atezo n = 286, Chemo n = 263",1.0%
same,"Treatment-related AE Leukopenia, All Grades, %","[1]; Atezo n = 286, Chemo n = 263",(1.0) %
same,"Treatment-related AE Leukopenia, Grade 3-4, %","[1]; Atezo n = 286, Chemo n = 263",0.3%
same,"Treatment-related AE Nausea, All Grades, %","[1]; Atezo n = 286, Chemo n = 263",(7.0) %
same,"Treatment-related AE Nausea, Grade 3-4, %","[1]; Atezo n = 286, Chemo n = 263",0.3%
same,"Treatment-related AE Neutropenia, All Grades, %","[1]; Atezo n = 286, Chemo n = 263",(1.0) %
same,"Treatment-related AE Neutropenia, Grade 3-4, %","[1]; Atezo n = 286, Chemo n = 263",0.7%
same,"Treatment-related AE Pancytopenia, All Grades, %","[1]; Atezo n = 286, Chemo n = 263",(0.3) %
same,"Treatment-related AE Pancytopenia, Grade 3-4, %","[1]; Atezo n = 286, Chemo n = 263",0.3%
same,"Treatment-related AE Thrombocytopenia, All Grades, %","[1]; Atezo n = 286, Chemo n = 263",(1.7) %
same,"Treatment-related AE Thrombocytopenia, Grade 3-4, %","[1]; Atezo n = 286, Chemo n = 263",0.3%
same,"Treatment-related AE Vomiting, All Grades, %","[1]; Atezo n = 286, Chemo n = 263",(1.4) %
same,"Treatment-related AE Vomiting, Grade 3-4, %","[1]; Atezo n = 286, Chemo n = 263",0.3%
same,"Grade 5 AE: Acute myocardial infarction, %","[1]; Chemo N = 263, Atezo N = 286",0.3%
same,"Grade 5 AE: Aspiration, %","[1]; Chemo N = 263, Atezo N = 286",0.3%
same,"Grade 5 AE: COPD, %","[1]; Chemo N = 263, Atezo N = 286",0.3%
same,"Grade 5 AE: Cardiac arrest, %","[1]; Chemo N = 263, Atezo N = 286",0.3%
same,"Grade 5 AE: Cardiac disorders, %","[1]; Chemo N = 263, Atezo N = 286",0.7%
same,"Grade 5 AE: Cerebral infarction, %","[1]; Chemo N = 263, Atezo N = 286",0.3%
same,"Grade 5 AE: Death, %","[1]; Chemo N = 263, Atezo N = 286",0.7%
same,"Grade 5 AE: Gastrointestinal disorders, %","[1]; Chemo N = 263, Atezo N = 286",0.3%
same,"Grade 5 AE: General disorders and administration site conditions, %","[1]; Chemo N = 263, Atezo N = 286",0.7%
same,"Grade 5 AE: Infections and infestations, %","[1]; Chemo N = 263, Atezo N = 286",0.3%
same,"Grade 5 AE: Mechanical ileus, %","[1]; Chemo N = 263, Atezo N = 286",0.3%
same,"Grade 5 AE: Nervous system disorders, %","[1]; Chemo N = 263, Atezo N = 286",0.3%
same,"Grade 5 AE: Product issues, Device occlusion, %","[1]; Chemo N = 263, Atezo N = 286",0.3%
same,"Grade 5 AE: Pulmonary embolism, %","[1]; Chemo N = 263, Atezo N = 286",0.3%
same,"Grade 5 AE: Respiratory, thoracic and mediastinal disorders, %","[1]; Chemo N = 263, Atezo N = 286",1.0%
same,"Grade 5 AE: Sepsis, %","[1]; Chemo N = 263, Atezo N = 286",0.3%
same,Grade 5 AE: Total number of patients,"[1]; Chemo N = 263, Atezo N = 286",11
same,"Grade 5 AE: Total, % of patients","[1]; Chemo N = 263, Atezo N = 286",3.8%
same,Safety profile compared to platinum-based chemotherapy (in words),"[1]; safety population: 286 patients Arm A, 263 Arm B",favorable safety profile
same,"AESI Adrenal insufficiency Gr3-4, patients with event",[2],0
same,"AESI Adrenal insufficiency, patients with event",[2],2
same,"AESI Adrenal insufficiency, percent of patients",[2],(0.7%)
same,"AESI Colitis Gr3-4, patients with event",[2],2
same,"AESI Colitis Gr3-4, percent of patients",[2],(0.7%)
same,"AESI Colitis, patients with event",[2],3
same,"AESI Colitis, percent of patients",[2],(1.0%)
same,"AESI Diabetes Mellitus Gr3-4, patients with event",[2],1
same,"AESI Diabetes Mellitus Gr3-4, percent of patients",[2],(0.3%)
same,"AESI Diabetes Mellitus, patients with event",[2],2
same,"AESI Diabetes Mellitus, percent of patients",[2],(0.7%)
same,"AESI Hepatitis Gr3-4, patients with event",[2],12
same,"AESI Hepatitis Gr3-4, percent of patients",[2],(4.2%)*
same,"AESI Hepatitis, patients with event",[2],46
same,"AESI Hepatitis, percent of patients",[2],(16.1%)
same,"AESI Hyperthyroidism Gr3-4, patients with event",[2],0
same,"AESI Hyperthyroidism, patients with event",[2],13
same,"AESI Hyperthyroidism, percent of patients",[2],(4.5%)
same,"AESI Hypothyroidism Gr3-4, patients with event",[2],0
same,"AESI Hypothyroidism, patients with event",[2],27
same,"AESI Hypothyroidism, percent of patients",[2],(9.4%)
same,"AESI Infusion-Related Reactions Gr3-4, patients with event",[2],0
same,"AESI Infusion-Related Reactions, patients with event",[2],4
same,"AESI Infusion-Related Reactions, percent of patients",[2],(1.4%)
same,"AESI Myocarditis Gr3-4, patients with event",[2],1
same,"AESI Myocarditis Gr3-4, percent of patients",[2],(0.3%)
same,"AESI Myocarditis, patients with event",[2],1
same,"AESI Myocarditis, percent of patients",[2],(0.3%)
same,"AESI Myositis Gr3-4, patients with event",[2],0
same,"AESI Myositis, patients with event",[2],1
same,"AESI Myositis, percent of patients",[2],(0.3%)
same,"AESI Nephritis Gr3-4, patients with event",[2],0
same,"AESI Nephritis, patients with event",[2],1
same,"AESI Nephritis, percent of patients",[2],(0.3%)
same,"AESI Pneumonitis Gr3-4, patients with event",[2],2
same,"AESI Pneumonitis Gr3-4, percent of patients",[2],(0.7%)
same,"AESI Pneumonitis, patients with event",[2],11
same,"AESI Pneumonitis, percent of patients",[2],(3.8%)
same,"AESI Rash Gr3-4, patients with event",[2],3
same,"AESI Rash Gr3-4, percent of patients",[2],(1.0%)
same,"AESI Rash, patients with event",[2],44
same,"AESI Rash, percent of patients",[2],(15.4%)
same,"AESI Severe Cutaneous Adverse Reaction Gr3-4, patients with event",[2],0
same,"AESI Severe Cutaneous Adverse Reaction, patients with event",[2],2
same,"AESI Severe Cutaneous Adverse Reaction, percent of patients",[2],(0.7%)
same,"AESI Vasculitis Gr3-4, patients with event",[2],1
same,"AESI Vasculitis Gr3-4, percent of patients",[2],(0.3%)
same,"AESI Vasculitis, patients with event",[2],1
same,"AESI Vasculitis, percent of patients",[2],(0.3%)
same,"Immune-mediated Adrenal insufficiency requiring systemic corticosteroids, %",[2],(0.3) %
same,"Immune-mediated Diabetes mellitus requiring systemic corticosteroids, %",[2],(0.3) %
same,"Immune-mediated Hypothyroidism requiring systemic corticosteroids, %",[2],(0.3) %
same,"Immune-mediated Infusion-related reaction requiring systemic corticosteroids, %",[2],(0.3) %
same,"Immune-mediated Nephritis requiring systemic corticosteroids, %",[2],(0.3) %
